Test results from the supplement of paper PMC9112550, “Optimization of the antimicrobial peptide Bac7 by deep mutational scanning” (BMC Biology, 2022).

Test system: Escherichia coli TOP10
Assay: shrunken log2 fold change of peptide-encoding DNA abundance (4.5 h post-induction vs induction); higher = less antimicrobial activity (less host growth inhibition)
Conditions: time post-induction: 4.5 h; library: site-saturation at positions 5, 18, 19, 20
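Further: peptides expressed intracellularly from a pBAD plasmid library in pooled LB shake-flask culture, induced with 0.3% L-arabinose, DNA abundance read by NGS, three biological replicates, DESeq2 with apeglm shrinkage.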

## RRIRHRPPRLPRPRPRPCVFPRP
  shrunken log2 fold change: -0.0413

## RRIRIRPPRLPRPRPRPHFLPRP
  shrunken log2 fold change: -1.42

## RRIRNRPPRLPRPRPRPVANPRP
  shrunken log2 fold change: -0.0653

## RRIRVRPPRLPRPRPRPRLTPRP
  shrunken log2 fold change: 0.169

## RRIRQRPPRLPRPRPRPEMVPRP
  shrunken log2 fold change: -0.0549

## RRIRDRPPRLPRPRPRPDGTPRP
  shrunken log2 fold change: 0.184

## RRIRKRPPRLPRPRPRPHPIPRP
  shrunken log2 fold change: 0.0828

## RRIRRRPPRLPRPRPRPPRCPRP
  shrunken log2 fold change: 1.49

## RRIRARPPRLPRPRPRPWKPPRP
  shrunken log2 fold change: 4.26e-05

## RRIRERPPRLPRPRPRPLMPPRP
  shrunken log2 fold change: -0.119

## RRIRIRPPRLPRPRPRPQWLPRP
  shrunken log2 fold change: -0.0168

## RRIRKRPPRLPRPRPRPMYKPRP
  shrunken log2 fold change: -0.0655

## RRIRSRPPRLPRPRPRPPNIPRP
  shrunken log2 fold change: -0.251

## RRIRCRPPRLPRPRPRPTPAPRP
  shrunken log2 fold change: 0.933

## RRIRNRPPRLPRPRPRPYMLPRP
  shrunken log2 fold change: -0.14

## RRIRDRPPRLPRPRPRPYVSPRP
  shrunken log2 fold change: -0.032

## RRIRIRPPRLPRPRPRPCGLPRP
  shrunken log2 fold change: -0.0428

## RRIRWRPPRLPRPRPRPCPQPRP
  shrunken log2 fold change: -0.134

## RRIRKRPPRLPRPRPRPGAGPRP
  shrunken log2 fold change: 0.734

## RRIRCRPPRLPRPRPRPLRLPRP
  shrunken log2 fold change: 0.0282

## RRIRQRPPRLPRPRPRPWHIPRP
  shrunken log2 fold change: -0.00133

## RRIRNRPPRLPRPRPRPMPMPRP
  shrunken log2 fold change: 0.0119

## RRIRKRPPRLPRPRPRPPFHPRP
  shrunken log2 fold change: 0.307

## RRIRDRPPRLPRPRPRPLWHPRP
  shrunken log2 fold change: 0.0123

## RRIRNRPPRLPRPRPRPDPFPRP
  shrunken log2 fold change: -0.582

## RRIRDRPPRLPRPRPRPMGFPRP
  shrunken log2 fold change: 0.258

## RRIRHRPPRLPRPRPRPYGSPRP
  shrunken log2 fold change: -0.0135

## RRIRYRPPRLPRPRPRPAWFPRP
  shrunken log2 fold change: -0.0816

## RRIRERPPRLPRPRPRPNPNPRP
  shrunken log2 fold change: -0.365

## RRIRQRPPRLPRPRPRPKWGPRP
  shrunken log2 fold change: -0.0154

## RRIRLRPPRLPRPRPRPGRGPRP
  shrunken log2 fold change: 0.696

## RRIRSRPPRLPRPRPRPIDGPRP
  shrunken log2 fold change: 0.0145

## RRIRMRPPRLPRPRPRPMMEPRP
  shrunken log2 fold change: 0.00973

## RRIRLRPPRLPRPRPRPTRWPRP
  shrunken log2 fold change: 0.456

## RRIRFRPPRLPRPRPRPISWPRP
  shrunken log2 fold change: -0.132

## RRIRARPPRLPRPRPRPFIWPRP
  shrunken log2 fold change: 0.00679

## RRIRYRPPRLPRPRPRPVFYPRP
  shrunken log2 fold change: -1.05

## RRIRIRPPRLPRPRPRPPWMPRP
  shrunken log2 fold change: -0.0904

## RRIRWRPPRLPRPRPRPHRCPRP
  shrunken log2 fold change: 0.000478

## RRIRMRPPRLPRPRPRPQILPRP
  shrunken log2 fold change: -0.0502

## RRIRIRPPRLPRPRPRPTDPPRP
  shrunken log2 fold change: -0.223

## RRIRGRPPRLPRPRPRPYMDPRP
  shrunken log2 fold change: -0.0735

## RRIRCRPPRLPRPRPRPSRMPRP
  shrunken log2 fold change: -0.144

## RRIRWRPPRLPRPRPRPVGWPRP
  shrunken log2 fold change: 1.13

## RRIRHRPPRLPRPRPRPRNYPRP
  shrunken log2 fold change: -0.282

## RRIRLRPPRLPRPRPRPSHNPRP
  shrunken log2 fold change: -0.735

## RRIRQRPPRLPRPRPRPTSAPRP
  shrunken log2 fold change: 0.257

## RRIRHRPPRLPRPRPRPLRLPRP
  shrunken log2 fold change: 0.199

## RRIRCRPPRLPRPRPRPVMIPRP
  shrunken log2 fold change: -0.0658

## RRIRIRPPRLPRPRPRPYSWPRP
  shrunken log2 fold change: -0.264

## RRIRNRPPRLPRPRPRPTMQPRP
  shrunken log2 fold change: 0.0135

## RRIRGRPPRLPRPRPRPARYPRP
  shrunken log2 fold change: 0.339

## RRIRGRPPRLPRPRPRPTWWPRP
  shrunken log2 fold change: 0.906

## RRIRPRPPRLPRPRPRPFRGPRP
  shrunken log2 fold change: 0.0377

## RRIRDRPPRLPRPRPRPAEQPRP
  shrunken log2 fold change: 0.0426

## RRIRMRPPRLPRPRPRPPLTPRP
  shrunken log2 fold change: 0.843

## RRIRQRPPRLPRPRPRPFQAPRP
  shrunken log2 fold change: -0.207

## RRIRKRPPRLPRPRPRPRRKPRP
  shrunken log2 fold change: 0.969

## RRIRCRPPRLPRPRPRPTCVPRP
  shrunken log2 fold change: -0.0603

## RRIRNRPPRLPRPRPRPYMHPRP
  shrunken log2 fold change: -0.671

## RRIRHRPPRLPRPRPRPSAVPRP
  shrunken log2 fold change: -0.341

## RRIRLRPPRLPRPRPRPAYSPRP
  shrunken log2 fold change: -0.354

## RRIRCRPPRLPRPRPRPAQKPRP
  shrunken log2 fold change: -0.118

## RRIRCRPPRLPRPRPRPMMAPRP
  shrunken log2 fold change: 0.184

## RRIRIRPPRLPRPRPRPWKEPRP
  shrunken log2 fold change: -0.12

## RRIRERPPRLPRPRPRPCVNPRP
  shrunken log2 fold change: -0.182

## RRIRHRPPRLPRPRPRPWCPPRP
  shrunken log2 fold change: -0.402

## RRIRWRPPRLPRPRPRPYFRPRP
  shrunken log2 fold change: -0.787

## RRIRHRPPRLPRPRPRPLFFPRP
  shrunken log2 fold change: -0.171

## RRIRMRPPRLPRPRPRPHHQPRP
  shrunken log2 fold change: -0.526

## RRIRVRPPRLPRPRPRPSNRPRP
  shrunken log2 fold change: -0.147

## RRIRMRPPRLPRPRPRPPDPPRP
  shrunken log2 fold change: 1.25

## RRIRQRPPRLPRPRPRPCGDPRP
  shrunken log2 fold change: -0.0871

## RRIRWRPPRLPRPRPRPMWGPRP
  shrunken log2 fold change: 0.117

## RRIRRRPPRLPRPRPRPSNYPRP
  shrunken log2 fold change: -0.169

## RRIRHRPPRLPRPRPRPPFCPRP
  shrunken log2 fold change: 0.00537

## RRIRGRPPRLPRPRPRPRYLPRP
  shrunken log2 fold change: 0.282

## RRIRMRPPRLPRPRPRPIHGPRP
  shrunken log2 fold change: 0.0579

## RRIRKRPPRLPRPRPRPVSCPRP
  shrunken log2 fold change: 0.129

## RRIRTRPPRLPRPRPRPETIPRP
  shrunken log2 fold change: -0.0605

## RRIRWRPPRLPRPRPRPVNWPRP
  shrunken log2 fold change: 0.537

## RRIRPRPPRLPRPRPRPTDPPRP
  shrunken log2 fold change: 0.0787

## RRIRKRPPRLPRPRPRPEHEPRP
  shrunken log2 fold change: 1.09

## RRIRVRPPRLPRPRPRPAPEPRP
  shrunken log2 fold change: 0.514

## RRIRCRPPRLPRPRPRPAVAPRP
  shrunken log2 fold change: 0.137

## RRIRYRPPRLPRPRPRPESEPRP
  shrunken log2 fold change: -0.0162

## RRIRERPPRLPRPRPRPKDNPRP
  shrunken log2 fold change: -0.342

## RRIRYRPPRLPRPRPRPEQHPRP
  shrunken log2 fold change: -0.0567

## RRIRFRPPRLPRPRPRPHVRPRP
  shrunken log2 fold change: -0.271

## RRIRHRPPRLPRPRPRPIIFPRP
  shrunken log2 fold change: -0.249

## RRIRKRPPRLPRPRPRPSKAPRP
  shrunken log2 fold change: -0.0406

## RRIRTRPPRLPRPRPRPYFYPRP
  shrunken log2 fold change: -0.842

## RRIRVRPPRLPRPRPRPWKYPRP
  shrunken log2 fold change: -0.0321

## RRIRWRPPRLPRPRPRPRPNPRP
  shrunken log2 fold change: 0.273

## RRIRTRPPRLPRPRPRPGCTPRP
  shrunken log2 fold change: -0.0907

## RRIRDRPPRLPRPRPRPRFIPRP
  shrunken log2 fold change: -0.233

## RRIRHRPPRLPRPRPRPHFSPRP
  shrunken log2 fold change: 0.0854

## RRIRQRPPRLPRPRPRPTNGPRP
  shrunken log2 fold change: -0.0973

## RRIRPRPPRLPRPRPRPETKPRP
  shrunken log2 fold change: 0.00908

## RRIRLRPPRLPRPRPRPWDHPRP
  shrunken log2 fold change: -1.04

## RRIRCRPPRLPRPRPRPGQCPRP
  shrunken log2 fold change: -0.11

## RRIRRRPPRLPRPRPRPMKPPRP
  shrunken log2 fold change: 0.0733

## RRIRHRPPRLPRPRPRPIDYPRP
  shrunken log2 fold change: -0.017

## RRIRKRPPRLPRPRPRPCEFPRP
  shrunken log2 fold change: 0.252

## RRIRMRPPRLPRPRPRPQTNPRP
  shrunken log2 fold change: 0.462

## RRIRGRPPRLPRPRPRPTCNPRP
  shrunken log2 fold change: 0.7

## RRIRERPPRLPRPRPRPRPCPRP
  shrunken log2 fold change: -0.0205

## RRIRTRPPRLPRPRPRPHHCPRP
  shrunken log2 fold change: -0.12

## RRIRWRPPRLPRPRPRPFCVPRP
  shrunken log2 fold change: -0.0188

## RRIRCRPPRLPRPRPRPRRPPRP
  shrunken log2 fold change: 0.654

## RRIRMRPPRLPRPRPRPGLPPRP
  shrunken log2 fold change: 0.955

## RRIRARPPRLPRPRPRPEDSPRP
  shrunken log2 fold change: 0.32

## RRIRTRPPRLPRPRPRPGTFPRP
  shrunken log2 fold change: -0.116

## RRIRGRPPRLPRPRPRPPSAPRP
  shrunken log2 fold change: 1.07

## RRIRMRPPRLPRPRPRPDRCPRP
  shrunken log2 fold change: 0.0778

## RRIRTRPPRLPRPRPRPKPGPRP
  shrunken log2 fold change: 0.299

## RRIRQRPPRLPRPRPRPSIDPRP
  shrunken log2 fold change: -0.607

## RRIRNRPPRLPRPRPRPGTRPRP
  shrunken log2 fold change: 0.00131

## RRIRARPPRLPRPRPRPFVSPRP
  shrunken log2 fold change: -0.00645

## RRIRNRPPRLPRPRPRPGITPRP
  shrunken log2 fold change: -0.326

## RRIRARPPRLPRPRPRPMNSPRP
  shrunken log2 fold change: -0.279

## RRIRWRPPRLPRPRPRPHMLPRP
  shrunken log2 fold change: -0.954

## RRIRYRPPRLPRPRPRPYCSPRP
  shrunken log2 fold change: -0.00208

## RRIRQRPPRLPRPRPRPMTVPRP
  shrunken log2 fold change: -0.00149

## RRIRFRPPRLPRPRPRPTCEPRP
  shrunken log2 fold change: 0.0933
